Test results: publication PMC4838544 (Gene, 2016)

Target: T1, E. coli topoisomerase I with a N-terminus 6x-His tag (E. coli, UniProt P06612 1-865)
T1 sequence (looked up): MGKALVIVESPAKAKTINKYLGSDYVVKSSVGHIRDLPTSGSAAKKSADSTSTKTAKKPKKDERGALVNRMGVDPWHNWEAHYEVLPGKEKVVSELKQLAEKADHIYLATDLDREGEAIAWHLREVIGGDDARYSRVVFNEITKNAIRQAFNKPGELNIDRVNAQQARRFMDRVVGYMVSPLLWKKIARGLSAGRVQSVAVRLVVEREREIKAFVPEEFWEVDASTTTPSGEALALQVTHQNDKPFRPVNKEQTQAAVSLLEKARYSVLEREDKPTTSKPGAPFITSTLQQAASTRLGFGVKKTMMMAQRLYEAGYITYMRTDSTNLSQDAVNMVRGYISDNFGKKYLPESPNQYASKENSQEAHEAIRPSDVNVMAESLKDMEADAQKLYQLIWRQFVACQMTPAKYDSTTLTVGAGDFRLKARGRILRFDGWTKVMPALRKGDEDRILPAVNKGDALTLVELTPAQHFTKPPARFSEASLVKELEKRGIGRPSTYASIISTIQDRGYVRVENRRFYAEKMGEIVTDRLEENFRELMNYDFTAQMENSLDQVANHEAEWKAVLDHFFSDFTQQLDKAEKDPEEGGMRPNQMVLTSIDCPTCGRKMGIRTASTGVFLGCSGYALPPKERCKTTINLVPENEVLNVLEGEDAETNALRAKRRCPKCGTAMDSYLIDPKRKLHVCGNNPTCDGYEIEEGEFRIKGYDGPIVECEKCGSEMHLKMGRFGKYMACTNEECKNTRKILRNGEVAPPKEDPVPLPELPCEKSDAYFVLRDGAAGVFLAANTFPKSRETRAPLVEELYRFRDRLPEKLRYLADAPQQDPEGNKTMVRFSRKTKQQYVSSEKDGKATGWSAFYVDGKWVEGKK
Test: pull-down

B1: Purified E. coli RecA (natural protein)
chain: AIDENKQKALAAALGQIEKQFGKGSIMRLGEDRSMDVETISTGSLSLDIALGAGGLPMGRIVEIYGPESSGKTTLTLQVIAAAQREGKTCAFIDAEHALDPIYARKLGVDIDNLLCSQPDTGEQALEICDALARSGAVDVIVVDSVAALTPKAEIEGEIGDSHMGLAARMMSQAMRKLAGNLKQSNTLLIFINQIRMKIGVMFGNPETTTGGNALKFYASVRLDIRRIGAVKEGENVVGSETRVKVVKNKIAAPFKQAEFQILYGEGINFYGELVDLGVKEKLIEKAGAWYSYKGEKIGQGKANATAWLKDNPETAKEIEKKVRELLLSNPNSTPDFSVDDSEGVAETNEDF
  binding result: binds
